Data from US20220119825A1, “SCALABLE PEPTIDE-GPCR INT[…] SYSTEMS” (THE TRUSTEES OF COLUMBIA UNIVERSITY IN THE CITY OF NEW YORK, priority 2019, published 2022).

What was measured:
Test in all cases: cell-based or functional assay
[1] = biological target: T1, Sj.Ste2, Ste2-like mating GPCR of Schizosaccharomyces japonicus (Schizosaccharomyces japonicus)
T1 chain: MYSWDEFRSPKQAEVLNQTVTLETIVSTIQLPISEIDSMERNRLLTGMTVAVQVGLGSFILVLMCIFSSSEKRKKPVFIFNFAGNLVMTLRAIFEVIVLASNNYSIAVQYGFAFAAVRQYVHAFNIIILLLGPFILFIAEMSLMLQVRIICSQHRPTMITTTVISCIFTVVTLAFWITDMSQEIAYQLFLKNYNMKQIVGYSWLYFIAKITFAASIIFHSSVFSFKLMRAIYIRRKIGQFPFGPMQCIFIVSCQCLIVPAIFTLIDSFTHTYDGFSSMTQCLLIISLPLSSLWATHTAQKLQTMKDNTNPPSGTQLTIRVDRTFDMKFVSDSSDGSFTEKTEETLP

[2] = biological target: T2, Ss.Ste2, Ste2-like mating GPCR of Scheffersomyces stipitis (Scheffersomyces stipitis)
T2 chain: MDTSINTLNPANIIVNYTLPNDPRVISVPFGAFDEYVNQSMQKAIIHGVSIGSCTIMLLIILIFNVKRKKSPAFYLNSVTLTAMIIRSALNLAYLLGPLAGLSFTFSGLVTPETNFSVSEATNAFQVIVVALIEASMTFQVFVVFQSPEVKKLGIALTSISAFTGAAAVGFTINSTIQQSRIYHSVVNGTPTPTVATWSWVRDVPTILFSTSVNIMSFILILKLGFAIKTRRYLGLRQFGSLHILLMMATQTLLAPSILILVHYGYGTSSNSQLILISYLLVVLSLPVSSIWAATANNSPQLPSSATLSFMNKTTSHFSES

[3] = biological target: T3, Vp1.Ste2, Ste2-like mating GPCR of Vanderwaltozyma polyspora1 (Vanderwaltozyma polyspora)
T3 chain: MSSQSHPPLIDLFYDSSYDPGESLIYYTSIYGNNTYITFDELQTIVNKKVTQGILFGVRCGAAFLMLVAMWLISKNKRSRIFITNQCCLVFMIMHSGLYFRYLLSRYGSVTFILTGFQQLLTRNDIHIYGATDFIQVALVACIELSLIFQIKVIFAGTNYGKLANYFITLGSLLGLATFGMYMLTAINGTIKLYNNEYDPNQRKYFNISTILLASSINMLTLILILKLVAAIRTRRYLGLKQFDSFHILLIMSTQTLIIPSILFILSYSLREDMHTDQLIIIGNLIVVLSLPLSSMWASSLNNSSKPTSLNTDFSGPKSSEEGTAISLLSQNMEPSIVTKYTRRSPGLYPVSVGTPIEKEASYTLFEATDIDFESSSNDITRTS

[4] = biological target: T4, So.Ste2, Ste2-like mating GPCR of Schizosaccharomyces octosporus (Schizosaccharomyces octosporus)
T4 chain: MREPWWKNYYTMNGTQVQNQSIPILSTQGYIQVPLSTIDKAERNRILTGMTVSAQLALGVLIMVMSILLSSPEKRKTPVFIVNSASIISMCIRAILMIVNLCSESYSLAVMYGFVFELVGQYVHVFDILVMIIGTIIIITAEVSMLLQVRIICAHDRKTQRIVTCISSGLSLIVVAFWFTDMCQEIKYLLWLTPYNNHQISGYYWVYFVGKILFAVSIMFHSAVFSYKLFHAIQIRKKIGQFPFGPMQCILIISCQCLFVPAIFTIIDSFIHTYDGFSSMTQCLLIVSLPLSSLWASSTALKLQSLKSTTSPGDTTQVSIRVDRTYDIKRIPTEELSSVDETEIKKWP

[5] = biological target: T5, Sp.Ste2, Ste2-like mating GPCR of Schizosaccharomyces pombe (Schizosaccharomyces pombe, UniProt Q00619 1-348)
T5 sequence: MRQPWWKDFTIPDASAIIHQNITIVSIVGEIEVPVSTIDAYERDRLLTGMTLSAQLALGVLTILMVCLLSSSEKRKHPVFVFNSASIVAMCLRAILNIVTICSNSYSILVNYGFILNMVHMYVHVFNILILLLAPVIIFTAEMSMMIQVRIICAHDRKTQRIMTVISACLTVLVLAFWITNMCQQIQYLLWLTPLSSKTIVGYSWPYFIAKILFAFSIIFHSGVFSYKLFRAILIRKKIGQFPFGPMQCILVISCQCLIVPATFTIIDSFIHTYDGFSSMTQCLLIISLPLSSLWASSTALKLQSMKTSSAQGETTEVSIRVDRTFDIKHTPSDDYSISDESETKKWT

B1: Sj peptide ligand #1 VSDRVKQMLSHWWNFRNPDTANL (peptide)
peptide: VSDRVKQMLSHWWNFRNPDTANL
In the case of B1, the “Bttm (FUS1p-RFP reporter)” value [1] is reported as 21.2 fluorescence/A600 (not printed), the “EC50 (FUS1p-RFP reporter)” value [1] is reported as -7.8 log10 M (not printed) and the “Fold Change (FUS1p-RFP reporter)” value [1] is reported as 14.7 fold. For the same binder, the “Span (FUS1p-RFP reporter)” value [1] was 290 fluorescence/A600 (not printed) and the “Top (FUS1p-RFP reporter)” value [1] was 311 fluorescence/A600 (not printed).

B2: Ss peptide ligand #1 WHWTSYGVFEPG (peptide)
peptide: WHWTSYGVFEPG
With B2 the “Bttm (FUS1p-RFP reporter)” value [2] was 23 fluorescence/A600 (not printed), the “EC50 (FUS1p-RFP reporter)” value [2] was -7.9 log10 M (not printed) and the “Fold Change (FUS1p-RFP reporter)” value [2] was 13.8 fold. The “Span (FUS1p-RFP reporter)” value [2] was 295 fluorescence/A600 (not printed) and the “Top (FUS1p-RFP reporter)” value [2] was 318 fluorescence/A600 (not printed).

B3: Vp1 peptide ligand #1 WHWLELDNGQPIY (peptide)
peptide: WHWLELDNGQPIY
B3 was tested, and the “Bttm (FUS1p-RFP reporter)” value [3] was 28.8 fluorescence/A600 (not printed), the “EC50 (FUS1p-RFP reporter)” value [3] was -8.6 log10 M (not printed) and the “Fold Change (FUS1p-RFP reporter)” value [3] was 8.4 fold. The “Span (FUS1p-RFP reporter)” value [3] was 214 fluorescence/A600 (not printed) and the “Top (FUS1p-RFP reporter)” value [3] was 243 fluorescence/A600 (not printed).

B4: So peptide ligand #1 TYEDFLRVYKNWWSFQNPDRPDL (peptide)
peptide: TYEDFLRVYKNWWSFQNPDRPDL
With B4 the “Bttm (FUS1p-RFP reporter)” value [4] was 23.7 fluorescence/A600 (not printed), the “EC50 (FUS1p-RFP reporter)” value [4] was -7.8 log10 M (not printed) and the “Fold Change (FUS1p-RFP reporter)” value [4] was 11.1 fold. The “Span (FUS1p-RFP reporter)” value [4] was 240 fluorescence/A600 (not printed) and the “Top (FUS1p-RFP reporter)” value [4] was 263 fluorescence/A600 (not printed).

B5: Sp peptide ligand #1 TYADFLRAYQSWNTFVNPDRPNL (peptide)
peptide: TYADFLRAYQSWNTFVNPDRPNL
With B5 the “Bttm (FUS1p-RFP reporter)” value [5] was 29.6 fluorescence/A600 (not printed), the “EC50 (FUS1p-RFP reporter)” value [5] was -6.2 log10 M (not printed) and the “Fold Change (FUS1p-RFP reporter)” value [5] was 7.6 fold. For the same binder, the “Span (FUS1p-RFP reporter)” value [5] was 195 fluorescence/A600 (not printed) and the “Top (FUS1p-RFP reporter)” value [5] was 224 fluorescence/A600 (not printed).
